Data as given in paper PMC11480844 (2024).

B1: H2-Kb / Ed28 (parent complex)
chain 1: AQSVTQPDARVTVSEGASLQLRCKYSYFGTPYLFWYVQYPRQGLQLLLKYYPGDPVVQGVNGFEAEFSKSNSSFHLRKASVHWSDWAVYFCAVSPGSGGKLTLGAGTRLQVNL
chain 2: DSGVVQSPRHIIKEKGGRSVLTCIPISGHSNVVWYQQTLGKELKFLIQHYEKVERDKGFLPSRFSVQQFDDYHSEMNMSALELEDSAMYFCASSPRASDYTFGSGTRLLVI
chain 3: not shown
chain 4: IQKTPQIQVYSRHPPENGKPNILNCYVTQFHPPHIEIQMLKNGKKIPKVEMSDMSFSKDWSFYILAHTEFTPTETDTYACRVKHDSMAEPKTVYWDRDM
chain 5: SIINFEKL

Variants of: B1
Assay: % of reporter cells activated (NFAT-GFP), raw; further: test concentration or dose not given here

With chain 5 S1E as the variant, how does the ratio to parent read?
Its ratio to parent is 0.798.

With chain 5 I2K as the variant, how does the ratio to parent read?
Its ratio to parent is 0.837.

How did the ratio to parent turn out when chain 5 N4L was run?
The ratio to parent was 0.329.

chain 5 I3F was tested. Which ratio to parent did it give?
Its ratio to parent is 0.6.

For chain 5 I3P, which ratio to parent is on record?
Its ratio to parent is 0.898.

Which ratio to parent does the source give for chain 5 K7N here?
The ratio to parent was 0.242.

Which ratio to parent does the source give for chain 5 S1C here?
The ratio to parent was 0.59.

How did the ratio to parent turn out when chain 5 I3D was run?
The ratio to parent was 0.727.

For chain 5 L8G, which ratio to parent is on record?
Its ratio to parent is 0.947.

How did the ratio to parent turn out when chain 5 S1Q was run?
Its ratio to parent is 0.81.

With chain 5 K7V as the variant, how does the ratio to parent read?
The ratio to parent was 0.159.

For chain 5 N4T, which ratio to parent is on record?
The ratio to parent was 0.0349.

chain 5 I3Q was tested. Which ratio to parent did it give?
Its ratio to parent is 0.449.

chain 5 I2W was tested. Which ratio to parent did it give?
Its ratio to parent is 0.702.

chain 5 S1R was tested. Which ratio to parent did it give?
Its ratio to parent is 0.321.

chain 5 I2E was tested. Which ratio to parent did it give?
The ratio to parent was 0.981.

How did the ratio to parent turn out when chain 5 S1I was run?
The ratio to parent was 0.433.

With chain 5 E6G as the variant, how does the ratio to parent read?
Its ratio to parent is 0.651.

chain 5 K7R was tested. Which ratio to parent did it give?
Its ratio to parent is 0.496.

With chain 5 S1N as the variant, how does the ratio to parent read?
Its ratio to parent is 0.293.

chain 5 I3G was tested. Which ratio to parent did it give?
The ratio to parent was 0.836.

For chain 5 S1K, which ratio to parent is on record?
The ratio to parent was 0.445.

With chain 5 I2F as the variant, how does the ratio to parent read?
The ratio to parent was 1.01.

For chain 5 K7D, which ratio to parent is on record?
Its ratio to parent is 0.00937.

chain 5 N4Q was tested. Which ratio to parent did it give?
The ratio to parent was 0.00495.

Which ratio to parent does the source give for chain 5 N4F here?
Its ratio to parent is 0.0123.

With chain 5 K7M as the variant, how does the ratio to parent read?
Its ratio to parent is 0.104.

For chain 5 K7L, which ratio to parent is on record?
Its ratio to parent is 0.244.

With chain 5 I3C as the variant, how does the ratio to parent read?
Its ratio to parent is 0.894.

Which ratio to parent does the source give for chain 5 N4I here?
Its ratio to parent is 0.167.

With chain 5 I2P as the variant, how does the ratio to parent read?
Its ratio to parent is 1.2.

chain 5 L8R was tested. Which ratio to parent did it give?
Its ratio to parent is 0.915.

Which ratio to parent does the source give for chain 5 E6F here?
Its ratio to parent is 0.013.

Which ratio to parent does the source give for chain 5 F5V here?
The ratio to parent was 0.772.

chain 5 F5T was tested. Which ratio to parent did it give?
Its ratio to parent is 1.17.

With chain 5 I2H as the variant, how does the ratio to parent read?
Its ratio to parent is 0.659.

How did the ratio to parent turn out when chain 5 L8T was run?
The ratio to parent was 0.832.

With chain 5 S1P as the variant, how does the ratio to parent read?
Its ratio to parent is 0.693.

For chain 5 N4H, which ratio to parent is on record?
The ratio to parent was 0.0455.

With chain 5 N4M as the variant, how does the ratio to parent read?
The ratio to parent was 0.00709.

chain 5 I2V was tested. Which ratio to parent did it give?
The ratio to parent was 1.3.

How did the ratio to parent turn out when chain 5 K7T was run?
The ratio to parent was 0.115.

How did the ratio to parent turn out when chain 5 E6R was run?
Its ratio to parent is 0.0718.

With chain 5 F5N as the variant, how does the ratio to parent read?
The ratio to parent was 0.742.

Which ratio to parent does the source give for chain 5 I2S here?
The ratio to parent was 1.14.

For chain 5 L8A, which ratio to parent is on record?
The ratio to parent was 0.709.

Which ratio to parent does the source give for chain 5 K7F here?
The ratio to parent was 0.0786.

chain 5 F5M was tested. Which ratio to parent did it give?
Its ratio to parent is 0.741.

Which ratio to parent does the source give for chain 5 L8S here?
The ratio to parent was 0.563.

chain 5 I2M was tested. Which ratio to parent did it give?
Its ratio to parent is 0.857.

For chain 5 I2Q, which ratio to parent is on record?
Its ratio to parent is 0.574.

How did the ratio to parent turn out when chain 5 E6D was run?
The ratio to parent was 0.533.

For chain 5 I2Y, which ratio to parent is on record?
The ratio to parent was 0.58.

How did the ratio to parent turn out when chain 5 I3Y was run?
Its ratio to parent is 0.369.

Which ratio to parent does the source give for chain 5 L8D here?
Its ratio to parent is 0.475.

With chain 5 K7A as the variant, how does the ratio to parent read?
Its ratio to parent is 0.162.

For chain 5 S1W, which ratio to parent is on record?
Its ratio to parent is 0.723.

For chain 5 E6Y, which ratio to parent is on record?
The ratio to parent was 0.0885.

How did the ratio to parent turn out when chain 5 I3M was run?
The ratio to parent was 0.959.

Which ratio to parent does the source give for chain 5 K7G here?
The ratio to parent was 0.185.

Which ratio to parent does the source give for chain 5 S1F here?
The ratio to parent was 0.965.

For chain 5 I2G, which ratio to parent is on record?
Its ratio to parent is 1.06.

chain 5 N4Y was tested. Which ratio to parent did it give?
The ratio to parent was 0.0195.

For chain 5 I3T, which ratio to parent is on record?
The ratio to parent was 1.31.

How did the ratio to parent turn out when chain 5 E6V was run?
Its ratio to parent is 0.0103.

How did the ratio to parent turn out when chain 5 F5R was run?
The ratio to parent was 0.774.

chain 5 I3N was tested. Which ratio to parent did it give?
The ratio to parent was 1.16.

Which ratio to parent does the source give for chain 5 I3W here?
The ratio to parent was 0.592.

For chain 5 E6K, which ratio to parent is on record?
Its ratio to parent is 0.702.

Which ratio to parent does the source give for chain 5 K7Q here?
Its ratio to parent is 0.141.

Which ratio to parent does the source give for chain 5 K7P here?
Its ratio to parent is 0.145.

For chain 5 E6N, which ratio to parent is on record?
Its ratio to parent is 0.22.

How did the ratio to parent turn out when chain 5 L8F was run?
Its ratio to parent is 1.02.

How did the ratio to parent turn out when chain 5 L8K was run?
Its ratio to parent is 0.584.

How did the ratio to parent turn out when chain 5 N4R was run?
The ratio to parent was 0.227.
